± gives the standard deviation of the averaged measurements.
tested on: ATP; assay: switch fluorescence ratio, 500 uM ATP over buffer (Cy3 cluster intensity, sum of 5 cycles each) (fold (ratio)); higher = stronger signal-on switching upon ATP binding; sequences stand for … in TCGTCGGCAGCGTCAGATGTGTATAAGAGACAGTTTTTTTTTTTTTTTTTTTTTTTTT…TC; conditions: aptamer strand: ATP DNA aptamer (quencher-CACCTGGGGGAGTATTGCGGAGGAAGG + anchor), 100 nM annealed; ATP concentration: 500 uM
Method in brief: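 Clusters with intensities outside 100-1000 RFU were excluded. The remaining Cy3-labelled switching-strand clusters on a modified Illumina MiSeq flow-cell had been annealed to 100 nM quencher-labelled ATP aptamer and imaged in selection buffer, then after 15 min with 500 uM ATP at 22 °C, for five cycles separated by NaOH stripping and re-annealing. The fluorescence ratio, averaged per switch-domain sequence, is each cluster's summed target-cycle Cy3 intensity over its summed buffer-cycle Cy3 intensity.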
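Note: ATP exposure 15 min at 22 °C before imaging.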

| Sequence | switch fluorescence ratio |
| --- | --- |
| AAGGGAAGCG | 1.01 ± 0.039 |
| AAGGGACTTG | 0.995 ± 0.018 |
| AAGGGCAGGG | 1.03 ± 0.029 |
| AAGGGCAGGT | 1.01 ± 0.03 |
| AAGGGCCAGC | 0.9896 ± 0.0042 |
| AAGGGCCGTG | 1.02 ± 0.04 |
| AAGGGCCTTC | 1.025 ± 0.0071 |
| AAGGGCGCTC | 0.975 ± 0.032 |
| AAGGGCGGC | 1.03 ± 0.018 |
| AAGGGCTACG | 0.983 ± 0.04 |
| AAGGGCTAGA | 1 ± 0.016 |
| AAGGGGAAAG | 0.998 ± 0.025 |
| AAGGGGAACT | 0.9907 ± 0.0043 |
| AAGGGGAGAG | 0.993 ± 0.018 |
| AAGGGGCACT | 1.02 ± 0.047 |
| AAGGGGCAGG | 1.04 ± 0.084 |
| AAGGGGCCCT | 1.0195 ± 0.00095 |
| AAGGGGCCGA | 0.994 ± 0.034 |
| AAGGGGCCGC | 0.982 ± 0.026 |
| AAGGGGGAAG | 0.971 ± 0.015 |
| AAGGGGGAAT | 1.05 ± 0.031 |
| AAGGGGGAGA | 0.994 ± 0.03 |
| AAGGGGGCGT | 1 ± 0.026 |
| AAGGGGGG | 0.994 ± 0.062 |
| AAGGGGGGAA | 1.06 ± 0.21 |

| Sequence | switch fluorescence ratio |
| --- | --- |
| AAGGGGGGGC | 0.998 ± 0.062 |
| AAGGGGTGGA | 1.01 ± 0.05 |
| AAGGGTGGTC | 0.957 ± 0.012 |
| AAGGGTTAAG | 0.9975 ± 0.006 |
| AAGGGTTGAG | 0.981 ± 0.046 |
| AAGGGTTGTT | 1.01 ± 0.032 |
| AAGGGTTTGA | 1.032 ± 0.0096 |
| AAGGTACCGG | 1.01 ± 0.03 |
| AAGGTACCGT | 1.05 ± 0.055 |
| AAGGTAGGGC | 1.014 ± 0.008 |
| AAGGTATATA | 0.9938 ± 0.0031 |
| AAGGTATCTG | 1.03 ± 0.03 |
| AAGGTATGC | 1.01 ± 0.048 |
| AAGGTATGTT | 0.981 ± 0.021 |
| AAGGTCAAGG | 1.015 ± 0.0056 |
| AAGGTCATTT | 1 ± 0.034 |
| AAGGTCCAGT | 1.13 ± 0.23 |
| AAGGTCCGCT | 1.05 ± 0.02 |
| AAGGTCTATT | 0.998 ± 0.06 |
| AAGGTCTGAG | 1.02 ± 0.043 |
| AAGGTCTGGT | 0.985 ± 0.038 |
| AAGGTGAGGG | 1.03 ± 0.02 |
| AAGGTGGGGG | 0.991 ± 0.033 |
| AAGGTGTGGG | 1.01 ± 0.015 |
| AAGGTGTTTG | 1.05 ± 0.04 |

| Sequence | switch fluorescence ratio |
| --- | --- |
| AAGGTTAAGG | 0.993 ± 0.025 |
| AAGGTTAATG | 1 ± 0.016 |
| AAGGTTAGGG | 0.984 ± 0.029 |
| AAGGTTATCT | 1.005 ± 0.0068 |
| AAGGTTCGAT | 0.984 ± 0.049 |
| AAGGTTGCGG | 1 ± 0.037 |
| AAGGTTTGTA | 0.9899 ± 0.0068 |
| AAGGTTTTTA | 0.993 ± 0.029 |
| AAGTAACGGT | 1.02 ± 0.047 |
| AAGTAAGTAG | 1.01 ± 0.021 |
| AAGTACTATC | 1.26 ± 0.025 |
| AAGTACTTGA | 1.12 ± 0.052 |
| AAGTAGATTG | 1.003 ± 0.0081 |
| AAGTAGGCGC | 0.9958 ± 0.008 |
| AAGTATAGC | 1.02 ± 0.044 |
| AAGTCATTTT | 1.026 ± 0.0017 |
| AAGTCCAATG | 1.01 ± 0.023 |
| AAGTCCGATA | 0.9941 ± 0.0038 |
| AAGTCGTTCG | 0.989 ± 0.016 |
| AAGTCTCTCC | 1.06 ± 0.018 |
| AAGTCTGCAG | 1.002 ± 0.01 |
| AAGTCTGTTA | 0.994 ± 0.032 |
| AAGTCTGTTT | 1.03 ± 0.028 |
| AAGTGAATGG | 0.9986 ± 0.0032 |
| AAGTGACCTT | 1.135 ± 0.0039 |

| Sequence | switch fluorescence ratio |
| --- | --- |
| AAGTGAGGGG | 0.998 ± 0.028 |
| AAGTGCGATC | 1.04 ± 0.019 |
| AAGTGGCTTT | 1 ± 0.014 |
| AAGTGGGCGT | 1.01 ± 0.046 |
| AAGTGGGGA | 0.986 ± 0.018 |
| AAGTGGGGCT | 1.005 ± 0.0094 |
| AAGTGGGGGA | 1.02 ± 0.015 |
| AAGTGGGGTA | 1.03 ± 0.022 |
| AAGTGGGTGT | 0.99 ± 0.059 |
| AAGTGGGTTT | 1.02 ± 0.037 |
| AAGTGTCTTG | 0.999 ± 0.05 |
| AAGTGTTAAT | 0.9955 ± 0.0031 |
| AAGTTACGT | 1.06 ± 0.025 |
| AAGTTAGACA | 1.021 ± 0.0087 |
| AAGTTAGTTA | 1.03 ± 0.02 |
| AAGTTCAGTA | 0.9673 ± 0.0084 |
| AAGTTCAGTG | 1.014 ± 0.0068 |
| AAGTTCTGGA | 0.976 ± 0.07 |
| AAGTTGGGGC | 0.989 ± 0.032 |
| AAGTTGGTCT | 1.02 ± 0.018 |
| AAGTTGGTTC | 0.98 ± 0.052 |
| AAGTTGTATG | 0.9787 ± 0.0025 |
| AAGTTGTTAT | 0.986 ± 0.045 |
| AAGTTTAGCA | 1.01 ± 0.021 |
| AAGTTTATTT | 0.973 ± 0.051 |

| Sequence | switch fluorescence ratio |
| --- | --- |
| AAGTTTCGAG | 0.983 ± 0.017 |
| AAGTTTCGGG | 0.987 ± 0.027 |
| AAGTTTTCAG | 0.97 ± 0.021 |
| AAGTTTTGGT | 0.964 ± 0.019 |
| AATAAAAAGG | 0.991 ± 0.019 |
| AATAAAAAGT | 0.982 ± 0.023 |
| AATAAAAGAT | 1 ± 0.017 |
| AATAAAATT | 1.03 ± 0.076 |
| AATAAACGGG | 1.03 ± 0.015 |
| AATAAAGAGT | 0.974 ± 0.015 |
| AATAAAGGAT | 1 ± 0.017 |
| AATAACAAAA | 0.995 ± 0.037 |
| AATAACCAGT | 1.02 ± 0.016 |
| AATAAGAGGG | 1.01 ± 0.026 |
| AATAAGGAGA | 1.01 ± 0.019 |
| AATAAGGGGA | 1.02 ± 0.077 |
| AATAAGGTAT | 0.965 ± 0.014 |
| AATAAGTTTT | 0.969 ± 0.037 |
| AATAATGTTG | 0.998 ± 0.015 |
| AATAATTGTG | 1.02 ± 0.028 |
| AATACAGCAT | 1.03 ± 0.014 |
| AATACCATCG | 1.05 ± 0.033 |
| AATACGACGG | 1.14 ± 0.014 |
| AATACGAGAG | 1.03 ± 0.019 |
| AATACGAGTC | 1.09 ± 0.022 |

| Sequence | switch fluorescence ratio |
| --- | --- |
| AATAGAAAAT | 0.97 ± 0.061 |
| AATAGAATTA | 1 ± 0.018 |
| AATAGAGTGG | 0.99 ± 0.024 |
| AATAGCATGG | 1.03 ± 0.024 |
| AATAGCTAGT | 0.99272 ± 0.00015 |
| AATAGGACGG | 1.03 ± 0.022 |
| AATAGGGCAG | 1.009 ± 0.0078 |
| AATAGGGGTA | 0.987 ± 0.029 |
| AATAGGGTG | 1.08 ± 0.07 |
| AATAGGTAG | 0.976 ± 0.014 |
| AATAGGTTAG | 1.001 ± 0.0075 |
| AATAGTTACT | 1.0234 ± 0.00037 |
| AATAGTTAGG | 1.02 ± 0.012 |
| AATAGTTTAG | 0.9918 ± 0.0035 |
| AATATAGCGT | 0.969 ± 0.021 |
| AATATAGTTG | 1.02 ± 0.018 |
| AATATGAGGG | 1.01 ± 0.042 |
| AATATGTGTG | 0.97933 ± 0.00034 |
| AATATTAGGC | 1.03 ± 0.03 |
| AATATTCTGT | 0.9923 ± 0.0029 |
| AATATTTAGT | 1 ± 0.024 |
| AATATTTTCC | 1.04 ± 0.052 |
| AATATTTTTG | 1 ± 0.019 |
| AATCAAGTAG | 0.9821 ± 0.0086 |
| AATCACGGTG | 1.05 ± 0.052 |

| Sequence | switch fluorescence ratio |
| --- | --- |
| AATCAGCCTC | 1.01 ± 0.016 |
| AATCAGCGGT | 1.02 ± 0.028 |
| AATCATTCCG | 1.07 ± 0.041 |
| AATCATTGTA | 1.01 ± 0.039 |
| AATCCCGCCA | 1.19 ± 0.034 |
| AATCCGGGGC | 2.35 ± 1.6 |
| AATCCTAAGG | 1.02 ± 0.048 |
| AATCCTATCA | 1.02 ± 0.014 |
| AATCGCAACG | 1.02 ± 0.022 |
| AATCGCTGGG | 0.988 ± 0.022 |
| AATCGGGAA | 0.9868 ± 0.0041 |
| AATCGGGTAT | 0.984 ± 0.027 |
| AATCGGTCAC | 0.998 ± 0.025 |
| AATCGGTCTG | 1.03 ± 0.02 |
| AATCGGTGCG | 0.986 ± 0.049 |
| AATCGTATCC | 1.01 ± 0.029 |
| AATCGTCAGG | 1.01 ± 0.012 |
| AATCTAATTG | 1.002 ± 0.0038 |
| AATCTGCTCG | 0.9864 ± 0.002 |
| AATCTGGGGC | 0.968 ± 0.011 |
| AATCTGGTGT | 1.02 ± 0.054 |
| AATCTTGAGG | 1.01 ± 0.028 |
| AATCTTTATT | 1.008 ± 0.0018 |
| AATGAAGGCA | 1.005 ± 0.0049 |
| AATGAATGAG | 0.971 ± 0.022 |

| Sequence | switch fluorescence ratio |
| --- | --- |
| AATGAATTGT | 1.02 ± 0.022 |
| AATGAGTATA | 0.9915 ± 0.007 |
| AATGCCAGGG | 1.02 ± 0.026 |
| AATGCCTGGT | 0.984 ± 0.022 |
| AATGCGGGGA | 1.03 ± 0.017 |
| AATGCGGTAT | 1.01 ± 0.023 |
| AATGCGTGTG | 1.12 ± 0.15 |
| AATGCTGTTG | 0.991 ± 0.02 |
| AATGCTTGTC | 0.952 ± 0.048 |
| AATGCTTTGG | 1.007 ± 0.0095 |
| AATGGAAGGG | 1.01 ± 0.013 |
| AATGGAGATT | 0.985 ± 0.031 |
| AATGGATGTT | 1.05 ± 0.12 |
| AATGGCAGGA | 0.998 ± 0.016 |
| AATGGCAGTC | 1.03 ± 0.05 |
| AATGGCCTA | 1.03 ± 0.046 |
| AATGGCGGCC | 1.03 ± 0.039 |
| AATGGCTGTG | 0.972 ± 0.033 |
| AATGGGAAGG | 0.971 ± 0.028 |
| AATGGGACTT | 1.02 ± 0.015 |
| AATGGGATAC | 1.16 ± 0.027 |
| AATGGGGGAC | 1.001 ± 0.0025 |
| AATGGGGGAG | 0.981 ± 0.0099 |
| AATGGGGGCA | 1.007 ± 0.0076 |
| AATGGGGTAC | 1.009 ± 0.0087 |

— the supplement of paper PMC10126150
